Measurements reported in paper PMC3834820, “Structural insight into LexA–RecA* interaction” (Nucleic Acids Research, 2013).

B1: LexA(M24C), oxidized (disulphide-locked dimer in the DNA-binding state) (natural protein, E. coli, UniProt P0A7C2 1-202, looked up)
chain: MKALTARQQEVFDLIRDHISQTGCPPTRAEIAQRLGFRSPNAAEEHLKALARKGVIEIVSGASRGIRLLQEEEEGLPLVGRVAAGEPLLAQQHIEGHYQVDPSLFKPNADFLLRVSGMSMKDIGIMDGDLLAVHKTQDVRNGQVVVARIDDEVTVKRLKKQGNKVELLPENSEFKPIVVDLRQQSFTIEGLAVGVIRNGDWL
modifications: intermolecular disulphide bond between the Cys24 residues of the two subunits
notes: LexA repressor, E. coli, single-cysteine mutant M24C; The reduced form (20 mM DTT) was also used in the cleavage assay but is not made a molecule here; also called oxidized LexA(M24C); source: overexpressed from plasmid pLexAM24C, purified (Ni-NTA); oxidized with 0.5 mM 1,10-phenanthroline and 0.1 mM CuSO4, 30 min, room temperature
B2: tisB operator SPR fragment (dsDNA)
DNA 1: GTTACTACTCGAGCGATTACTGTTTATTTATACAGTAAA
DNA 2: TTTACTGTATAAATAAACAGTAAT
DNA 3: CGCTCGAGTAGTAAC

How the values were obtained:
[1] = biological target: the molecule itself; experiment: cross-linking; intermolecular disulphide between Cys24 of two LexA(M24C) subunits on oxidation with 0.5 mM 1,10-phenanthroline and 0.1 mM CuSO4, 30 min, room temperature
LexA wt = LexA wt (UniProt P0A7C2 1-202); experiment: SPR; 150 nM LexA; LexA-operator SPR: 20 mM NaH2PO4 pH 7.3, 0.14 M NaCl, 0.005% P20, 25 C; RecA-SKBT25: 20 mM NaH2PO4 pH 7.3, 1 mM ATPgS, 2 mM MgCl2, 0.05 mM Ellman's reagent, on; conditions: protein: recombinant; chain copies: 2; label: 3' TEG-biotin on S9; S7 pairs with the 3' 24 nt and S9 with the 5' 15 nt of S10; nick between S7 and S9; blunt

Row | Binder | binding result [1] | binding result (LexA wt)
1 | B1 | binds | 
2 | B2 |  | binds
